Source: article PMC5343656, “The human mitochondrial transcription factor A is a versatile G-quadruplex binding protein”

How the values were obtained:
TFAM (mature) [1] = biological target: T1, TFAM (mature) (human, UniProt Q00059 43-246); assay: EMSA; EMSA: 25 mM Tris-HCl pH 7.0, 90 mM NaCl, 1 mM DTT, 3% glycerol, 0.01% Tween20, 30 min, room temperature; G4s mostly prefolded in 10 mM cacodylate pH 6.5, 100 mM KCl; settings: protein: recombinant, tags: C-terminal 6xHis
T1 sequence: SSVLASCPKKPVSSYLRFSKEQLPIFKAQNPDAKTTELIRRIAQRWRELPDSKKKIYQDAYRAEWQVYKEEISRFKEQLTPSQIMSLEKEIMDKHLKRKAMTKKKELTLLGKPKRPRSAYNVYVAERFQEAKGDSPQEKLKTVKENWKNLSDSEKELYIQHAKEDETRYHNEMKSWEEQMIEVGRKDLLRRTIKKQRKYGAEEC

TFAM (mature) [2] = biological target: T1, TFAM (mature); assay: EMSA; similar to unmodified c-myc; EMSA: 25 mM Tris-HCl pH 7.0, 90 mM NaCl, 1 mM DTT, 3% glycerol, 0.01% Tween20, 30 min, room temperature; G4s mostly prefolded in 10 mM cacodylate pH 6.5, 100 mM KCl; settings: protein: recombinant; tags: C-terminal 6xHis; intramolecular G4
TFAM (mature) [3] = biological target: T1, TFAM (mature); assay: EMSA; single shift; EMSA: 25 mM Tris-HCl pH 7.0, 90 mM NaCl, 1 mM DTT, 3% glycerol, 0.01% Tween20, 30 min, room temperature; G4s mostly prefolded in 10 mM cacodylate pH 6.5, 100 mM KCl; settings: protein: recombinant; tags: C-terminal 6xHis; G4 tetramer of 4 strands
TFAM (mature) [4] = biological target: T1, TFAM (mature); assay: intrinsic fluorescence quenching; EMSA: 25 mM Tris-HCl pH 7.0, 90 mM NaCl, 1 mM DTT, 3% glycerol, 0.01% Tween20, 30 min, room temperature; G4s mostly prefolded in 10 mM cacodylate pH 6.5, 100 mM KCl; settings: protein: recombinant, tags: C-terminal 6xHis
TFAM (mature) [5] = biological target: T1, TFAM (mature); assay: competition; vs 32P CSBII G4-DNA/RNA; EMSA: 25 mM Tris-HCl pH 7.0, 90 mM NaCl, 1 mM DTT, 3% glycerol, 0.01% Tween20, 30 min, room temperature; G4s mostly prefolded in 10 mM cacodylate pH 6.5, 100 mM KCl; settings: protein: recombinant; tags: C-terminal 6xHis; duplex
TFAM (mature) [6] = biological target: T1, TFAM (mature); assay: competition; vs 32P-dsLSP22; EMSA: 25 mM Tris-HCl pH 7.0, 90 mM NaCl, 1 mM DTT, 3% glycerol, 0.01% Tween20, 30 min, room temperature; G4s mostly prefolded in 10 mM cacodylate pH 6.5, 100 mM KCl; settings: protein: recombinant; tags: C-terminal 6xHis; label: 5' 32P or SybrGold; G4 parallel tetramer of 4 strands
TFAM (mature) [7] = biological target: T1, TFAM (mature); assay: EMSA; microscopic k1, two-site fit; EMSA: 25 mM Tris-HCl pH 7.0, 90 mM NaCl, 1 mM DTT, 3% glycerol, 0.01% Tween20, 30 min, room temperature; G4s mostly prefolded in 10 mM cacodylate pH 6.5, 100 mM KCl; settings: protein: recombinant; tags: C-terminal 6xHis; label: 5' 32P or SybrGold; G4 parallel tetramer of 4 strands
[8] = biological target: T2, TFAM (mature);TFAM HMG1-L (human;human, UniProt Q00059;Q00059 43-246;43-152, |); assay: EMSA; one TFAM and one or two HMG1-L per G4; EMSA: 25 mM Tris-HCl pH 7.0, 90 mM NaCl, 1 mM DTT, 3% glycerol, 0.01% Tween20, 30 min, room temperature; G4s mostly prefolded in 10 mM cacodylate pH 6.5, 100 mM KCl; settings: protein: recombinant;recombinant; tags: C-terminal 6xHis;N-terminal His; label: 5' 32P or SybrGold; G4 parallel tetramer of 4 strands
T2 sequence 1: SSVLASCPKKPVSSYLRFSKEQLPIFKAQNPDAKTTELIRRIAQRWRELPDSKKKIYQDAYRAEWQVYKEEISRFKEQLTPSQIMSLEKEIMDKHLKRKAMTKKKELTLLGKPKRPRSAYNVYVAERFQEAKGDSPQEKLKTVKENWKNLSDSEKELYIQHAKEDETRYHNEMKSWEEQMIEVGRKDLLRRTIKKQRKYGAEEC
T2 sequence 2: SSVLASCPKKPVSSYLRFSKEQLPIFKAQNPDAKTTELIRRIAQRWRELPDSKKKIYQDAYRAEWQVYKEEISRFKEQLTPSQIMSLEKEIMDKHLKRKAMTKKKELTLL

TFAM (mature) [9] = biological target: T1, TFAM (mature); assay: EMSA; microscopic k2, two-site fit; k12 0.58; EMSA: 25 mM Tris-HCl pH 7.0, 90 mM NaCl, 1 mM DTT, 3% glycerol, 0.01% Tween20, 30 min, room temperature; G4s mostly prefolded in 10 mM cacodylate pH 6.5, 100 mM KCl; settings: protein: recombinant; tags: C-terminal 6xHis; label: 5' 32P or SybrGold; G4 parallel tetramer of 4 strands
TFAM (mature) [10] = biological target: T1, TFAM (mature); assay: competition; homo-competition, 32P-G4-LSP22H; EMSA: 25 mM Tris-HCl pH 7.0, 90 mM NaCl, 1 mM DTT, 3% glycerol, 0.01% Tween20, 30 min, room temperature; G4s mostly prefolded in 10 mM cacodylate pH 6.5, 100 mM KCl; settings: protein: recombinant; tags: C-terminal 6xHis; label: 5' 32P or SybrGold; G4 parallel tetramer of 4 strands
TFAM (mature);TFAM HMG1 = biological target: T3, TFAM (mature);TFAM HMG1 (human;human, UniProt Q00059;Q00059 43-246;43-125, |); assay: EMSA; one TFAM and one HMG1 per G4; EMSA: 25 mM Tris-HCl pH 7.0, 90 mM NaCl, 1 mM DTT, 3% glycerol, 0.01% Tween20, 30 min, room temperature; G4s mostly prefolded in 10 mM cacodylate pH 6.5, 100 mM KCl; settings: protein: recombinant;recombinant; tags: C-terminal 6xHis;; label: 5' 32P or SybrGold; G4 parallel tetramer of 4 strands
T3 sequence 1: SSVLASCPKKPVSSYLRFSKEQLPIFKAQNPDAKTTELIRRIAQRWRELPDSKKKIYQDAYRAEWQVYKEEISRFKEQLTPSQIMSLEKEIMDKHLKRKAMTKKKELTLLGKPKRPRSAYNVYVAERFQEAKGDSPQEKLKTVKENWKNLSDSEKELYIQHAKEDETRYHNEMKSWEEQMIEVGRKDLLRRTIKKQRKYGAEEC
T3 sequence 2: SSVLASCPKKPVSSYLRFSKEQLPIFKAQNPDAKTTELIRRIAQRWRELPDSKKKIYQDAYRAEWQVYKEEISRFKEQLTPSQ

[11] = label: 5' 32P, G4 tetramer of 4 strands
[12] = label: 5' 32P or SybrGold, G4 parallel tetramer of 4 strands

B1: CSBII G4-DNA/RNA (mixed)
DNA: GAAGCGGGGGAGGGGGGGTTTGGTGGAAAT
RNA: GAAGCGGGGGAGGGGGGGUUUGGUGGAAAU
- Kd (TFAM (mature) [1]; label: 5' 32P, hybrid G4 bimolecular): 1.85 nM

Binder: GAAGCGGGGGAGGGGGGGUUUGGUGGAAAU (structured_RNA) [CSBII G4-RNA]
- Kd (TFAM (mature) [1]; label: 5' 32P, G4 bimolecular): 1.25 nM

Binder: TCTGAGGGTGGGTAGGGTGGGTAACT (structured_DNA) [c-myc G4 extended]
- binding result (TFAM (mature) [2]): binds

Binder: TGGGGGGTGACT (structured_DNA) [(TG6TGACT)4]
- Kd (TFAM (mature) [3]): 5 nM

Binder: TGGGGGGT (structured_DNA) [(TG6T)4]
- binding result (TFAM (mature) [1]; G4 tetramer of 4 strands): no binding

B2: dsLSP22 (dsDNA)
DNA 1: GTTAGTTGGGGGGTGACTGTTA
DNA 2: TAACAGTCACCCCCCAACTAAC
- Kd (TFAM (mature) [1]; label: 5' 32P (EMSA), blunt): 9.2 nM
- binding signal (TFAM (mature) [4]; label: 5' 32P (EMSA), blunt): ~50 % Trp quenching

Binder: TAGTTGGGGGGT (structured_DNA) [(TAGTTG6T)4]
- binding result (TFAM (mature) [3]): binds

Binder: GAAGCGGGGGAGGGGGGGTTTGGTGGAAAT (structured_DNA) [CSBII G4-DNA (EMSA)]
- Kd (TFAM (mature) [1]; label: 5' 32P, G4, purified bimolecular): 3.65 nM

Binder: AATAATGTGTTAGTTGGGGGGTG (structured_DNA) [G4-LSPas]
- Kd (TFAM (mature) [1]; [11]): 0.89 nM
- binding signal (TFAM (mature) [4]; [11]): ~70 % Trp quenching

Binder: ACAGGGGTGTGGGGACAGGGGTGTGGGG (structured_DNA) [ILPR G4]
- Kd (TFAM (mature) [1]; label: 5' 32P, intramolecular G4, mostly antiparallel by CD): 118 nM

B3: CSBII DNA/RNA heteroduplex competitor (DNA:RNA)
RNA: GAAGCGGGGGAGGGGGGGUUUGGUGGAAAU
DNA: ATTTCCACCAAACCCCCCCTCCCCCGCTTC
- binding signal (TFAM (mature) [5]): ~80 % free probe at 500-fold excess

Binder: TCACAGGGGTGTGGGGACAGGGGTGTGGGGTGACT (structured_DNA) [ILPR G4 extended]
- Kd (TFAM (mature) [1]; intramolecular G4): ~26 nM

Binder: GTTAGTTGGGGGGTGACTGTTA (structured_DNA) [G4-LSP22H]
- Kd (TFAM (mature) [1]; [12]): 0.65 nM
- binding signal (TFAM (mature) [6]): 1.6 fold excess for 50% displacement
- Ka (TFAM (mature) [7]): 0.61 ± 0.12 10^9 M^-1
- binding result [8]: binds
- Ka (TFAM (mature) [9]): 0.69 ± 0.25 10^9 M^-1
- binding signal (TFAM (mature) [10]): 10 fold excess for 50% free probe
- binding signal (TFAM (mature) [4]; [12]): ~70 % Trp quenching
- binding result (TFAM (mature);TFAM HMG1): binds

Binder: TGAGGGTGGGTAGGGTGGGTAA (structured_DNA) [c-myc G4]
- Kd (TFAM (mature) [1]; label: 5' 32P, intramolecular G4, parallel by CD): 53 nM
